Experimental data reported in the RNAGym collection of RNA variant scans (doi:10.7554/elife.80360).

B1: CPEB3 Ribozyme (parent)
chain: GGGGGCCACAGCAGAAGCGUUCACGUCGCGGCCCCUGUCAGAUUCUGGUGAAUCUGCGAAUUCUGCUGU

Variants of: B1
Assay: self-cleavage, relative activity (ratio to wild type); higher = more cleavage; co-transcriptional

Variant	self-cleavage
GGGGGCCACAGCAGAAGCGUUCACGUCGCGGCCCCUGUCAGAUUCUGGUGAAACUGCGAACUCUGCUGU	0.583
GGGGGCCACAGCAGAAGCGUUCACGUCGCGGCCCCUGUCAGAUUCUGGUGAAACUGCGAAAUCUGCUGU	0.694
GGGGGCCACAGCAGAAGCGUUCACGUCGCGGCCCCUGUCAGAUUCUGGUGAAACUGCGAAUCCUGCUGU	0.634
GGGGGCCACAGCAGAAGCGUUCACGUCGCGGCCCCUGUCAGAUUCUGGUGAAACUGCGAAUACUGCUGU	0.821
GGGGGCCACAGCAGAAGCGUUCACGUCGCGGCCCCUGUCAGAUUCUGGUGAAACUGCGAAUGCUGCUGU	0.74
GGGGGCCACAGCAGAAGCGUUCACGUCGCGGCCCCUGUCAGAUUCUGGUGAAACUGCGAAUUCUGCUGU	0.973
GGGGGCCACAGCAGAAGCGUUCACGUCGCGGCCCCUGUCAGAUUCUGGUGAAACUGCGAAUUCGGCUGU	0.626
GGGGGCCACAGCAGAAGCGUUCACGUCGCGGCCCCUGUCAGAUUCUGGUGAAACUGCGAAUUCAGCUGU	0.822
GGGGGCCACAGCAGAAGCGUUCACGUCGCGGCCCCUGUCAGAUUCUGGUGAAACUGCGAAUUCCGCUGU	0.693
GGGGGCCACAGCAGAAGCGUUCACGUCGCGGCCCCUGUCAGAUUCUGGUGAAACAGCGAAUUCUGCUGU	0.354
GGGGGCCACAGCAGAAGCGUUCACGUCGCGGCCCCUGUCAGAUUCUGGUGAAACUGCGAAUUCUGCUGA	1.01
GGGGGCCACAGCAGAAGCGUUCACGUCGCGGCCCCUGUCAGAUUCUGGUGAAACUUCGAAUUCUGCUGU	0.583
GGGGGCCACAGCAGAAGCGUUCACGUCGCGGCCCCUGUCAGAUUCUGGUGAAACUGCGAAUUCUACUGU	0.739
GGGGGCCACAGCAGAAGCGUUCACGUCGCGGCCCCUGUCAGAUUCUGGUGAAACUGCGAAUUCUUCUGU	0.587
GGGGGCCACAGCAGAAGCGUUCACGUCGCGGCCCCUGUCAGAUUCUGGUGAAACUGCGAAUUCUCCUGU	0.552
GGGGGCCACAGCAGAAGCGUUCACGUCGCGGCCCCUGUCAGAUUCUGGUGAAACUGGGAAUUCUGCUGU	0.345
GGGGGCCACAGCAGAAGCGUUCACGUCGCGGCCCCUGUCAGAUUCUGGUGAAACUGUGAAUUCUGCUGU	0.376
GGGGGCCACAGCAGAAGCGUUCACGUCGCGGCCCCUGUCAGAUUCUGGUGAAACUGCGAAUUUUGCUGU	0.909
GGGGGCCACAGCAGAAGCGUUCACGUCGCGGCCCCUGUCAGAUUCUGGUGAAACUGCGAAUUGUGCUGU	0.709
GGGGGCCACAGCAGAAGCGUUCACGUCGCGGCCCCUGUCAGAUUCUGGUGAAAGUGCGAAUUCUGCUGU	0.586

Variant	self-cleavage
GGGGGCCACAGCAGAAGCGUUCACGUCGCGGCCCCUGUCAGAUUCUGGUGAUUCUGCGAAUUCUGCUGG	1.04
GGGGGCCACAGCAGAAGCGUUCACGUCGCGGCCCCUGUCAGAUUCUGGUGAUUCUGCGAAUUCUGCUGC	1.05
GGGGGCCACAGCAGAAGCGUUCACGUCGCGGCCCCUGUCAGAUUCUGGUGAAACUGCAAAUUCUGCUGU	0.919
GGGGGCCACAGCAGAAGCGUUCACGUCGCGGCCCCUGUCAGAUUCUGGUGAAACUGCCAAUUCUGCUGU	0.917
GGGGGCCACAGCAGAAGCGUUCACGUCGCGGCCCCUGUCAGAUUCUGGUGAAACUGCUAAUUCUGCUGU	0.944
GGGGGCCACAGCAGAAGCGUUCACGUCGCGGCCCCUGUCAGAUUCUGGUGAAACUGCGAAUUCUGCUAU	1.03
GGGGGCCACAGCAGAAGCGUUCACGUCGCGGCCCCUGUCAGAUUCUGGUGAAACUGCGAAUUCUGCUUU	0.978
GGGGGCCACAGCAGAAGCGUUCACGUCGCGGCCCCUGUCAGAUUCUGGUGAAACUGCGAAUUCUGCUCU	1.03
GGGGGCCACAGCAGAAGCGUUCACGUCGCGGCCCCUGUCAGAUUCUGGUGAAACUGCGAAUUCUGCGGU	0.938
GGGGGCCACAGCAGAAGCGUUCACGUCGCGGCCCCUGUCAGAUUCUGGUGAAACUGCGAAUUCUGCAGU	0.834
GGGGGCCACAGCAGAAGCGUUCACGUCGCGGCCCCUGUCAGAUUCUGGUGAUUCUGCGAAUUCGGCUGU	0.666
GGGGGCCACAGCAGAAGCGUUCACGUCGCGGCCCCUGUCAGAUUCUGGUGAUUCUGCGAAUUCCGCUGU	0.741
GGGGGCCACAGCAGAAGCGUUCACGUCGCGGCCCCUGUCAGAUUCUGGUGAAACUGCGAAUUCUGUUGU	0.911
GGGGGCCACAGCAGAAGCGUUCACGUCGCGGCCCCUGUCAGAUUCUGGUGAAACUGCGAAUUCUGGUGU	0.624
GGGGGCCACAGCAGAAGCGUUCACGUCGCGGCCCCUGUCAGAUUCUGGUGAAACUGCGUAUUCUGCUGU	0.646
GGGGGCCACAGCAGAAGCGUUCACGUCGCGGCCCCUGUCAGAUUCUGGUGAAACUGCGCAUUCUGCUGU	0.571
GGGGGCCACAGCAGAAGCGUUCACGUCGCGGCCCCUGUCAGAUUCUGGUGAAACUGCGGAUUCUGCUGU	0.98
GGGGGCCACAGCAGAAGCGUUCACGUCGCGGCCCCUGUCAGAUUCUGGUGAUUCUGCGAAUUCUGCGGU	0.987
GGGGGCCACAGCAGAAGCGUUCACGUCGCGGCCCCUGUCAGAUUCUGGUGAUUCUGCGAAUUCUGCCGU	0.915
